From paper PMC9897490

Target: FtsZ (wild type, Caulobacter crescentus) (Caulobacter crescentus)
Experiment: BLI

FtsZ (wild type, Caulobacter crescentus) (Caulobacter crescentus), sequence (B8H080 whole entry): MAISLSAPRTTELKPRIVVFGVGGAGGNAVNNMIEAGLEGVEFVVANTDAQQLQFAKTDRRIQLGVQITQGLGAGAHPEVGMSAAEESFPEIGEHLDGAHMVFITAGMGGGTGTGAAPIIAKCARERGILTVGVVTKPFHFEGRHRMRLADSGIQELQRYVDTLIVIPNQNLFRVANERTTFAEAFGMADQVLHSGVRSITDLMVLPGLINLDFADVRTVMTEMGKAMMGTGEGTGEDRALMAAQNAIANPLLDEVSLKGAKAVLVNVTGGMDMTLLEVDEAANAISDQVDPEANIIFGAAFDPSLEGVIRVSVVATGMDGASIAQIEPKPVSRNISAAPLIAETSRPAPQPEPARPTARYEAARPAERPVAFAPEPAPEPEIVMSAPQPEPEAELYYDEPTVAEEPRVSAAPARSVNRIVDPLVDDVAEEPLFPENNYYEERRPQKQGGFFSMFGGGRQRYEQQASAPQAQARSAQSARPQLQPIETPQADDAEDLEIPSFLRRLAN

## MipZ-His6 (wild type) (enzyme)
  Kd: 11 µM
